Test results published in patent US6051381, “Prokaryotic two-hybrid system” (dated 2000).

What was measured:
[1] = target: Fos-LexA (E. coli; mouse) (UniProt P01101); assay: E. coli two-hybrid, lacZ repression; reporter plasmid P3IHFLexAOpimpX
[2] = target: Jun-LexADNA (mouse; E. coli) (UniProt P05627); assay: E. coli two-hybrid, lacZ repression; reporter construct P3IHFLexAOpmH
[3] = target: Jun-LexADNA (mouse; E. coli) (UniProt P05627); assay: E. coli two-hybrid, lacZ repression; reporter construct P3IHFLexAOpX
E6-LexA (E. coli; HPV) [4] = target: E6-LexA (E. coli; HPV) (UniProt P0A7C2); assay: E. coli two-hybrid, lacZ repression; 0.5 mM IPTG, 50 ng/ml anhydrotetracycline; reporter P3IHFLexAimpX
[5] = target: Jun-LexADNA (mouse; E. coli) (UniProt P05627); assay: E. coli two-hybrid, lacZ repression; reporter construct P3LexAOpH
[6] = target: Jun-LexADNA (mouse; E. coli) (UniProt P05627); assay: E. coli two-hybrid, lacZ repression; reporter construct P3
[7] = target: Jun-LexADNA (mouse; E. coli) (UniProt P05627); assay: E. coli two-hybrid, lacZ repression; reporter construct P3IHFLexAOpH
[8] = target: Jun-LexADNA (mouse; E. coli) (UniProt P05627); assay: E. coli two-hybrid, lacZ repression; reporter construct P3LexAOpX
zip-LexADNA (E. coli) [9] = assay: E. coli two-hybrid, lacZ repression; reporter construct P3IHFLexAOpH
zip-LexADNA (E. coli) [10] = assay: E. coli two-hybrid, lacZ repression; reporter construct P3LexAOpX
zip-LexADNA (E. coli) [11] = assay: E. coli two-hybrid, lacZ repression; reporter construct P3IHFLexAOpmH
zip-LexADNA (E. coli) [12] = assay: E. coli two-hybrid, lacZ repression; reporter construct P3LexAOpH
zip-LexADNA (E. coli) [13] = assay: E. coli two-hybrid, lacZ repression; reporter construct P3
zip-LexADNA (E. coli) [14] = assay: E. coli two-hybrid, lacZ repression; reporter construct P3IHFLexAOpX
wild-type AraC = target: T1, wild-type AraC (E. coli, UniProt P0A9E0); assay: E. coli two-hybrid, lacZ repression, reporter P3IHFLexAOpimpX
T1 sequence: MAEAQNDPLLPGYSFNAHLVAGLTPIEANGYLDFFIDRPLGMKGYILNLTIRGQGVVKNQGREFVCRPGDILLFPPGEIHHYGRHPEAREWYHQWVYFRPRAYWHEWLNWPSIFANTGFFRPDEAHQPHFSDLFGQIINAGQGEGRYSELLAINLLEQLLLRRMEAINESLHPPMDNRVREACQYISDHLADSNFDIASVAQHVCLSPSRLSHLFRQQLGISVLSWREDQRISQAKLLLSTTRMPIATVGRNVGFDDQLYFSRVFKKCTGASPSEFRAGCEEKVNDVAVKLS

E6-LexA (E. coli; HPV) [15] = target: E6-LexA (E. coli; HPV) (UniProt P0A7C2); assay: E. coli two-hybrid, lacZ repression; non-interacting control pair; reporter P3IHFLexAimpX

Molecule: Jun-AraC (from UniProt P05627)
- repression ratio [1]: 11 fold

Molecule: AraCDNA
- repression ratio [2]: 1.09
- repression ratio [3]: 1.1

Molecule: E6AP-AraCDNA (from UniProt Q05086)
- repression ratio (E6-LexA (E. coli; HPV) [4]): > 30 fold

Molecule: Fos-AraCDNA (from UniProt P01101)
- repression ratio [5]: 2
- repression ratio [3]: 4.2
- repression ratio [6]: 1.1
- repression ratio [7]: 1.9
- repression ratio [8]: 2.3

B1: wild-type AraC (protein)
chain: T1 sequence
- repression ratio (zip-LexADNA (E. coli) [9]): 1
- repression ratio (zip-LexADNA (E. coli) [10]): 1.2
- repression ratio (zip-LexADNA (E. coli) [11]): 1.06
- repression ratio (zip-LexADNA (E. coli) [12]): 1.1
- repression ratio (zip-LexADNA (E. coli) [13]): 1.2
- repression ratio (zip-LexADNA (E. coli) [14]): 1.2

B2: Fos-LexA (other)
chain: RGKVEQLSPEEEEKRRIRRERNKMAAAKCRNRRRELTDTLQAETDQLEDEKSALQTEIANLLKEKEKLEFILAAHRPACKIPDDLGFPEEMSV
- binding result (wild-type AraC): no binding

B3: AraCDNA (protein)
chain: ESLHPPMDNRVREACQYISDHLADSNFDIASVAQHVCLSPSRLSHLFRQQLGISVLSWREDQRISQAKLLLSTTRMPIATVGRNVGFDDQLYFSRVFKKCTGASPSEFRAGCEEKVNDVAVKLS
- repression ratio (zip-LexADNA (E. coli) [9]): 1.1
- repression ratio (E6-LexA (E. coli; HPV) [15]): 1.5
- repression ratio (zip-LexADNA (E. coli) [10]): 1.1
- repression ratio (zip-LexADNA (E. coli) [11]): 0.9
- repression ratio (zip-LexADNA (E. coli) [12]): 1
- repression ratio (zip-LexADNA (E. coli) [13]): 1.2
- repression ratio (zip-LexADNA (E. coli) [14]): 1.2
